From patent publication US20030143656
Where a chain is given by its changes, count along the chain named. Names may count otherwise.

Assays:
[1] = molecular target: PDKtide
[2] = molecular target: T1, T308tide
T1 chain: KTFCGTPEYLAPEVRR

[3] = molecular target: GST-SGK1[T422D] (lacking the N-terminal 60 amino acids), O00141
[4] = molecular target: T2, GST-?PH-PKBα, P31749
T2 chain: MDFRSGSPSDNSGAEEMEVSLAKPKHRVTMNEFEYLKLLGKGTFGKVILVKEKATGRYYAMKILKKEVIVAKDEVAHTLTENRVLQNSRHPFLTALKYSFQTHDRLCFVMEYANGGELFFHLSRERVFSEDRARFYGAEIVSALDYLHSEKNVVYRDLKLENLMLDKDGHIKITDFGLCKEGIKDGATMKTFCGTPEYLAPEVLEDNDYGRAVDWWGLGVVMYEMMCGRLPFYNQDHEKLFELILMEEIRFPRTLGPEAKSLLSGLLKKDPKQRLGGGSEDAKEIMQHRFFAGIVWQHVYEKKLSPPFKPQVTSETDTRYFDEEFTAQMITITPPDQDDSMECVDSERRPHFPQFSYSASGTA

[5] = molecular target: T3, SGK1[F421A], O00141
T3 chain: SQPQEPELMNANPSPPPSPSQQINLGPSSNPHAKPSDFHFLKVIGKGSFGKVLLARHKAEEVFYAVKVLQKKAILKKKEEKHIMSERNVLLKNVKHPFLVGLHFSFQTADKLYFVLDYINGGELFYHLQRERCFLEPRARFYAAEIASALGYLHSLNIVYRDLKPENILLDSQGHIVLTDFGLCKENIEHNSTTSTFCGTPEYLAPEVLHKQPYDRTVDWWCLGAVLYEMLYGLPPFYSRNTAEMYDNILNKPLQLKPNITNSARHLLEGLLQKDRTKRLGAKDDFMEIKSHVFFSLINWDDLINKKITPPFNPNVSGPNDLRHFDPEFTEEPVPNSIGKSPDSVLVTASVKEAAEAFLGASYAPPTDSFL

[6] = molecular target: T4, D978A-PIFtide
T4 chain: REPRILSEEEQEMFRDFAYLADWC

[7] = molecular target: p70 S6K-T2 (His-tagged, insect cells), P23443
p70 S6K-T2 (His-tagged, insect cells), P23443, sequence (P23443 whole entry, looked up): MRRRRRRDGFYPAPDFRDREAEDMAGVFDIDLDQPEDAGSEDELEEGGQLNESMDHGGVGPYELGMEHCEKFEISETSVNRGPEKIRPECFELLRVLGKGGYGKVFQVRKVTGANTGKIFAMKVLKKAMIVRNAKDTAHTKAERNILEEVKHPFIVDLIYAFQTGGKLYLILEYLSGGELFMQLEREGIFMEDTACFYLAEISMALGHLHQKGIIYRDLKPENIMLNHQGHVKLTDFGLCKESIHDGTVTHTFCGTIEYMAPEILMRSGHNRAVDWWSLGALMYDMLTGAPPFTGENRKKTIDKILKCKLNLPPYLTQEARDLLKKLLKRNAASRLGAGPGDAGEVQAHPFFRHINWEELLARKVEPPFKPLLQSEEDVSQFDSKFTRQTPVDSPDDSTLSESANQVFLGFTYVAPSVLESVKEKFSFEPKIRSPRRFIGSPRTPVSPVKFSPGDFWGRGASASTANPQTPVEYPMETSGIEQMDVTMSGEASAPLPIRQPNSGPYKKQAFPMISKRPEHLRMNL

[8] = molecular target: GST-S6K1-T2[F411A], P23443
GST-S6K1-T2[F411A], P23443, sequence (P23443 1-421 F411A): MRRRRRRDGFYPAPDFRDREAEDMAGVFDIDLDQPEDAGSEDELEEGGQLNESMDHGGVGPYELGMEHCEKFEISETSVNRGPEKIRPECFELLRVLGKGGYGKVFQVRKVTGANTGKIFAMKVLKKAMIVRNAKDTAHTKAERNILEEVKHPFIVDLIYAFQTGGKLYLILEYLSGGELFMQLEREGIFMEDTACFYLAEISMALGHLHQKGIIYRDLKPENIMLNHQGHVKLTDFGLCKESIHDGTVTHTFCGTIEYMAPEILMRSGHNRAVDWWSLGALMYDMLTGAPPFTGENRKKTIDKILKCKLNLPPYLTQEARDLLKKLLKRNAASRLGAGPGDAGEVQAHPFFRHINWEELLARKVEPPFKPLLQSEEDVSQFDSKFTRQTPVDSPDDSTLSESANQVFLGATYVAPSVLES

[9] = molecular target: 412E-p70 S6K-T2 (His-tagged, insect cells), P23443
412E-p70 S6K-T2 (His-tagged, insect cells), P23443, sequence (P23443 whole entry, looked up): as the sequence (P23443 whole entry, looked up) above

[10] = molecular target: T5, PIFtide
T5 chain: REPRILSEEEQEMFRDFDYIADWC

[11] = molecular target: T6, GST-SGK1 (lacking the N-terminal 60 amino acids), O00141
T6 chain: T3 chain with A361F

[12] = molecular target: T7, GST-?PH-PKBα[S473D], P31749
T7 chain: T2 chain with S356D

[13] = molecular target: T8, GST-?PH-PKBα[F472A], P31749
T8 chain: T2 chain with F355A

[14] = molecular target: GST-FL-PKB, P31749
[15] = molecular target: GST-FL-PKB 473D, P31749
GST-FL-PKB 473D, P31749, sequence (P31749 other isoform, or with tags, fused parts or gaps): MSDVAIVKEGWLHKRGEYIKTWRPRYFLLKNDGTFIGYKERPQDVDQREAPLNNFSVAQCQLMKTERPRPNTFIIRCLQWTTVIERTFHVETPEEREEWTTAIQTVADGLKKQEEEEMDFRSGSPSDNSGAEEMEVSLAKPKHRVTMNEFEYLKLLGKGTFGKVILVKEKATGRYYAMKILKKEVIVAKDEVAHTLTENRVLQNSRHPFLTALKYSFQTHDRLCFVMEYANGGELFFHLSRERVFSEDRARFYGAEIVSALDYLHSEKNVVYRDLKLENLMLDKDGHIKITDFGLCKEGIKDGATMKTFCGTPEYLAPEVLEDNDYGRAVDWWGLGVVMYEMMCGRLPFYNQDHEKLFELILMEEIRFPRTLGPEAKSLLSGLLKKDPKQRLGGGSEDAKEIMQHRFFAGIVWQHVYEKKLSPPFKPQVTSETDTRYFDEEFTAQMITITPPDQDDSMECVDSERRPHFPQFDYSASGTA

[16] = molecular target: GST-PKBα[F472A], P31749
GST-PKBα[F472A], P31749, sequence (P31749 whole entry F472A): as the sequence (P31749 other isoform, or with tags, fused parts or gaps) above, with F472A, D473S counted along it

PDKtide, sequence (chain, as listed by the source): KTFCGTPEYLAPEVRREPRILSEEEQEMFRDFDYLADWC

B1: His-PDK1 (protein)
chain: DGTAAEPRPGAGSLQHAQPPPQPRKKRPEDFKFGKILGEGSFSTVVLARELATSREYAIKILEKRHIIKENKVPYVTRERDVMSRLDHPFFVKLYFTFQDDEKLYFGLSYAKNGELLKYIRKIGSFDETCTRFYTAEIVSALEYLHGKGIIHRDLKPENILLNEDMHIQITDFGTAKVLSPESKQARANSFVGTAQYVSPELLTEKSACKSSDLWALGCIIYQLVAGLPPFRAGNEYLIFQKIIKLEYDFPEKFFPKARDLVEKLLVLDATKRLGCEEMEGYGPLKAHPFFESVTWENLHQQTPPKLTAYLPAMSEDDEDCYGNYDNLLSQFGCMQVSSSSSSHSLSASDTGLPQRSGSNIEQYIHDLDSNSFELDLQFSEDEKRLLLEKQAGGNPWHQFVENNLILKMGPVDKRKGLFARRRQLLLTEGPHLYYVDPVNKVLKGEIPWSQELRPEAKNFKTFFVHTPNRTYYLMDPSGNAHKWCRKIQEVWRQRYQSHPDAAVQ
rate of phosphorylation at 100 µM, against T308tide [1]: phosphorylated at a rate over 100-fold greater than that using T308tide | Km of PDK1 for the peptide substrate [2]: the Km was very high (>10 mM)

B2: GST-PDK1 (wild type) (protein)
chain: MARTTSQLYDAVPIQSSVVLCSCPSPSMVRTQTESSTPPGIPGGSRQGPAMDGTAAEPRPGAGSLQHAQPPPQPRKKRPEDFKFGKILGEGSFSTVVLARELATSREYAIKILEKRHIIKENKVPYVTRERDVMSRLDHPFFVKLYFTFQDDEKLYFGLSYAKNGELLKYIRKIGSFDETCTRFYTAEIVSALEYLHGKGIIHRDLKPENILLNEDMHIQITDFGTAKVLSPESKQARANSFVGTAQYVSPELLTEKSACKSSDLWALGCIIYQLVAGLPPFRAGNEYLIFQKIIKLEYDFPEKFFPKARDLVEKLLVLDATKRLGCEEMEGYGPLKAHPFFESVTWENLHQQTPPKLTAYLPAMSEDDEDCYGNYDNLLSQFGCMQVSSSSSSHSLSASDTGLPQRSGSNIEQYIHDLDSNSFELDLQFSEDEKRLLLEKQAGGNPWHQFVENNLILKMGPVDKRKGLFARRRQLLLTEGPHLYYVDPVNKVLKGEIPWSQELRPEAKNFKTFFVHTPNRTYYLMDPSGNAHKWCRKIQEVWRQRYQSHPDAAVQ
relative phosphorylation of the substrate by PDK1-wt, +PIFtide (relative, PKB[S473D]=100) [3]: 9.6 | relative phosphorylation of the substrate by PDK1-wt, no PIFtide (relative, PKB[S473D]=100) [3]: 71 | relative phosphorylation of the substrate by PDK1-wt, +PIFtide (relative, PKB[S473D]=100) [4]: 0.25 | relative phosphorylation of the substrate by PDK1-wt, no PIFtide (relative, PKB[S473D]=100) [4]: 0.4 | rate of phosphorylation by PDK1 compared to the wild type enzyme [5]: markedly reduced | concentration needed to obtain 50% activation of PDK1 (T308tide as substrate) [6]: 1.1 µM for D978A-PIFtide | relative phosphorylation of the substrate by PDK1-wt, +PIFtide (relative, PKB[S473D]=100) [7]: 0.58 | relative phosphorylation of the substrate by PDK1-wt, no PIFtide (relative, PKB[S473D]=100) [7]: 10.4 | rate of phosphorylation by PDK1 compared to the wild type enzyme [8]: markedly reduced | relative phosphorylation of the substrate by PDK1-wt, +PIFtide (relative, PKB[S473D]=100) [9]: 7.4 | relative phosphorylation of the substrate by PDK1-wt, no PIFtide (relative, PKB[S473D]=100) [9]: 54 | concentration needed to obtain 50% activation of PDK1 (T308tide as substrate) [10]: 0.14 µM for wt-PIFtide | phosphorylation of p70 S6K at Thr412 by PDK1 (T412-P immunoblot) [10]: The 24 residue PIF peptide prevented PDK1 from phosphorylating the p70 S6K at Thr412 | relative phosphorylation of the substrate by PDK1-wt, +PIFtide (relative, PKB[S473D]=100) [11]: 3.8 | relative phosphorylation of the substrate by PDK1-wt, no PIFtide (relative, PKB[S473D]=100) [11]: 8 | relative phosphorylation of the substrate by PDK1-wt, +PIFtide (relative, PKB[S473D]=100) [12]: 0.2 | relative phosphorylation of the substrate by PDK1-wt, no PIFtide (relative, PKB[S473D]=100) [12]: 0.9 | rate of phosphorylation by PDK1 compared to the wild type enzyme [13]: markedly reduced | relative phosphorylation of the substrate by PDK1-wt, +PIFtide (relative, PKB[S473D]=100) [14]: 19.3 | relative phosphorylation of the substrate by PDK1-wt, no PIFtide (relative, PKB[S473D]=100) [14]: 28 | relative phosphorylation of the substrate by PDK1-wt, +PIFtide (relative, PKB[S473D]=100) [15]: 85.4 | relative phosphorylation of the substrate by PDK1-wt, no PIFtide (relative, PKB[S473D]=100) [15]: 100 | rate of phosphorylation by PDK1 compared to the wild type enzyme [16]: PKB[F472A] was phosphorylated at a similar rate to the wild type PKB

B3: GST-PDK1 L155E (protein)
chain: B2 chain with L155E
relative phosphorylation of the substrate by PDK1-L155E, +PIFtide (relative, PKB[S473D]=100) [3]: 3.4 | relative phosphorylation of the substrate by PDK1-L155E, no PIFtide (relative, PKB[S473D]=100) [3]: 3.5 | relative phosphorylation of the substrate by PDK1-L155E, +PIFtide (relative, PKB[S473D]=100) [4]: 0.25 | relative phosphorylation of the substrate by PDK1-L155E, no PIFtide (relative, PKB[S473D]=100) [4]: 0.23 | relative phosphorylation of the substrate by PDK1-L155E, +PIFtide (relative, PKB[S473D]=100) [7]: 0.27 | relative phosphorylation of the substrate by PDK1-L155E, no PIFtide (relative, PKB[S473D]=100) [7]: 0.6 | relative phosphorylation of the substrate by PDK1-L155E, +PIFtide (relative, PKB[S473D]=100) [9]: 0.108 | relative phosphorylation of the substrate by PDK1-L155E, no PIFtide (relative, PKB[S473D]=100) [9]: 0.5 | relative phosphorylation of the substrate by PDK1-L155E, +PIFtide (relative, PKB[S473D]=100) [11]: 2.4 | relative phosphorylation of the substrate by PDK1-L155E, no PIFtide (relative, PKB[S473D]=100) [11]: 3.3 | relative phosphorylation of the substrate by PDK1-L155E, +PIFtide (relative, PKB[S473D]=100) [12]: 0.15 | relative phosphorylation of the substrate by PDK1-L155E, no PIFtide (relative, PKB[S473D]=100) [12]: 0.18 | relative phosphorylation of the substrate by PDK1-L155E, +PIFtide (relative, PKB[S473D]=100) [14]: 35 | relative phosphorylation of the substrate by PDK1-L155E, no PIFtide (relative, PKB[S473D]=100) [14]: 35 | relative phosphorylation of the substrate by PDK1-L155E, +PIFtide (relative, PKB[S473D]=100) [15]: 162 | relative phosphorylation of the substrate by PDK1-L155E, no PIFtide (relative, PKB[S473D]=100) [15]: 178
